Test results from the Immune Epitope Database (IEDB).
pKd: −log10 of the molar value. Blank lines part the entries; values can stand above or below the sequence they belong to.

Assays:
HLA-C*12:03 = experiment: IEDB peptide-MHC binding, purified MHC/direct/fluorescence; filed as Kd, often an IC50 or EC50 that approximates it; ≥ and ≤ were set here for values at or beyond the usual limits of such assays
HLA-A*02:01 [1] = experiment: IEDB peptide-MHC binding, purified MHC/competitive/fluorescence; filed as Kd, often an IC50 or EC50 that approximates it; ≥ and ≤ were set here for values at or beyond the usual limits of such assays
HLA-B*15:01 [2] = experiment: as above
HLA-B*39:01 = experiment: as above; conditions: source organism: Salmonella enterica subsp. enterica serovar Typhi
HLA-A*01:01 = experiment: IEDB peptide-MHC binding, purified MHC/direct/fluorescence; filed as Kd, often an IC50 or EC50 that approximates it; ≥ and ≤ were set here for values at or beyond the usual limits of such assays
HLA-A*02:01 [3] = experiment: as above
HLA-A*03:01 = experiment: as above
HLA-A*11:01 = experiment: as above
HLA-A*31:01 = experiment: as above
HLA-A*69:01 = experiment: as above
HLA-B*08:01 = experiment: as above
HLA-B*08:02 = experiment: as above; conditions: source organism: Mycobacterium tuberculosis str. Haarlem
HLA-B*18:01 = experiment: as above; conditions: source organism: Mycobacterium tuberculosis
HLA-B*27:05 = experiment: as above
HLA-B*40:01 = experiment: as above
HLA-B*46:01 = experiment: as above; conditions: source organism: Mycobacterium tuberculosis
HLA-B*48:01 = experiment: as above; conditions: source organism: Mycobacterium tuberculosis
HLA-B*51:01 [4] = experiment: as above
HLA-B*57:01 [5] = experiment: as above; conditions: source organism: Mycobacterium tuberculosis
HLA-B*58:01 [6] = experiment: as above
HLA-A*30:01 [7] = experiment: IEDB peptide-MHC binding, purified MHC/competitive/fluorescence; filed as Kd, often an IC50 or EC50 that approximates it; ≥ and ≤ were set here for values at or beyond the usual limits of such assays; conditions: source organism: Mycobacterium tuberculosis C
HLA-B*15:42 = experiment: as above
HLA-B*45:06 = experiment: as above
HLA-B*83:01 = experiment: as above
HLA-A*32:01 = experiment: IEDB peptide-MHC binding, purified MHC/competitive/radioactivity; filed as Kd, often an IC50 or EC50 that approximates it; ≥ and ≤ were set here for values at or beyond the usual limits of such assays; conditions: source organism: Dengue virus 2 Jamaica/1409/1983
HLA-B*57:01 [8] = experiment: as above
HLA-B*58:01 [9] = experiment: as above
HLA-A*26:01 = experiment: IEDB peptide-MHC binding, purified MHC/direct/fluorescence; filed as Kd, often an IC50 or EC50 that approximates it; ≥ and ≤ were set here for values at or beyond the usual limits of such assays; conditions: source organism: Corynebacterium glutamicum
HLA-B*07:02 = experiment: as above; conditions: source organism: Corynebacterium glutamicum
HLA-B*15:01 [10] = experiment: as above
HLA-A*02:12 = experiment: IEDB peptide-MHC binding, purified MHC/competitive/fluorescence; filed as Kd, often an IC50 or EC50 that approximates it; ≥ and ≤ were set here for values at or beyond the usual limits of such assays; conditions: source organism: Shigella dysenteriae Sd197
HLA-A*30:01 [11] = experiment: IEDB peptide-MHC binding, purified MHC/competitive/radioactivity; filed as Kd, often an IC50 or EC50 that approximates it; ≥ and ≤ were set here for values at or beyond the usual limits of such assays; conditions: source organism: Dengue virus 1 Brazil/97-11/1997
HLA-B*51:01 [12] = experiment: IEDB peptide-MHC binding, purified MHC/competitive/fluorescence; filed as Kd, often an IC50 or EC50 that approximates it; ≥ and ≤ were set here for values at or beyond the usual limits of such assays; conditions: source organism: Vibrio vulnificus CMCP6
HLA-B*15:17 = experiment: IEDB peptide-MHC binding, purified MHC/direct/fluorescence; filed as Kd, often an IC50 or EC50 that approximates it; ≥ and ≤ were set here for values at or beyond the usual limits of such assays; conditions: source organism: Mycobacterium tuberculosis
[13] = source organism: Salmonella enterica subsp. enterica serovar Typhi
[14] = source organism: Mycobacterium tuberculosis
[15] = source organism: Mycobacterium tuberculosis str. Haarlem
[16] = source organism: Mycobacterium tuberculosis C
[17] = source organism: Dengue virus 2 Jamaica/1409/1983
[18] = source organism: West Nile virus
[19] = source organism: Corynebacterium glutamicum
[20] = source organism: Corynebacterium glutamicum ATCC 13032
[21] = source organism: Dengue virus 1 Brazil/97-11/1997
[22] = source organism: Dengue virus 1 Singapore/S275/1990

Sequence: FSLENVRLM
- pKd (HLA-C*12:03; source organism: Leishmania panamensis): 6.11

Sequence: TQFAGVVTV
- pKd (HLA-C*12:03; source organism: Salmonella enterica subsp. enterica serovar Typhi str. CT18): 8.52
- pKd (HLA-A*02:01 [1]; [13]): 9.30
- pKd (HLA-B*15:01 [2]; [13]): 6.67
- pKd (HLA-B*39:01): 8.77

Sequence: APRARTAAF
- pKd (HLA-A*01:01; [14]): ≤ 4.70
- pKd (HLA-A*02:01 [3]; [14]): ≤ 4.70
- pKd (HLA-A*03:01; [14]): ≤ 4.70
- pKd (HLA-A*11:01; [14]): ≤ 4.70
- pKd (HLA-A*31:01; [14]): ≤ 4.70
- pKd (HLA-A*69:01; [14]): ≤ 4.70
- pKd (HLA-B*08:01; [15]): 8.30
- pKd (HLA-B*08:02): 6.64
- pKd (HLA-B*18:01): 4.91
- pKd (HLA-B*27:05; [14]): ≤ 4.70
- pKd (HLA-B*40:01; [14]): ≤ 4.70
- pKd (HLA-B*46:01): ≤ 4.70
- pKd (HLA-B*48:01): ≤ 4.70
- pKd (HLA-B*51:01 [4]; [14]): ≤ 4.70
- pKd (HLA-B*57:01 [5]): ≤ 4.70
- pKd (HLA-B*58:01 [6]; [14]): ≤ 4.70
- pKd (HLA-A*30:01 [7]): ≤ 4.70
- pKd (HLA-B*15:01 [2]; [16]): ≤ 4.70
- pKd (HLA-B*15:42; [16]): ≤ 5.30
- pKd (HLA-B*45:06; [16]): ≤ 5.30
- pKd (HLA-B*83:01; [16]): 7.28

Sequence: TASILLWYAQ
- pKd (HLA-A*32:01): ≤ 4.48
- pKd (HLA-B*57:01 [8]; [17]): 7.54
- pKd (HLA-B*58:01 [9]; [17]): 6.00

Sequence: RVYSDHQAL
- pKd (HLA-B*51:01 [4]; [18]): ≤ 4.70
- pKd (HLA-C*12:03; [18]): 6.19

- pKd (HLA-A*01:01; [19]): ≤ 4.70
- pKd (HLA-A*02:01 [3]; [19]): ≤ 4.70
- pKd (HLA-A*03:01; [19]): ≤ 4.70
- pKd (HLA-A*11:01; [19]): ≤ 4.70
- pKd (HLA-A*26:01): ≤ 4.70
- pKd (HLA-A*31:01; [19]): ≤ 4.70
- pKd (HLA-A*69:01; [19]): ≤ 4.70
- pKd (HLA-B*07:02): 5.05
- pKd (HLA-B*08:01; [19]): ≤ 4.70
- pKd (HLA-B*15:01 [10]; [19]): ≤ 4.70
- pKd (HLA-B*27:05; [19]): ≤ 4.70
- pKd (HLA-B*40:01; [19]): 7.26
- pKd (HLA-B*58:01 [6]; [19]): ≤ 4.70
- pKd (HLA-B*15:42; [20]): ≤ 5.30
- pKd (HLA-B*45:06; [20]): ≤ 5.30
- pKd (HLA-B*83:01; [20]): ≤ 5.30
Sequence: AEHDPWWAV

Sequence: SVFSRPLPL
- pKd (HLA-A*02:01 [1]; source organism: Shigella dysenteriae Sd197): ≥ 10.00
- pKd (HLA-A*02:12): 6.74

Sequence: KVRKDIPQW
- pKd (HLA-A*30:01 [11]): 6.60
- pKd (HLA-B*57:01 [8]; [21]): 7.45
- pKd (HLA-B*58:01 [9]; [21]): 8.22

Sequence: FAFHTVFHI
- pKd (HLA-C*12:03; source organism: Vibrio vulnificus CMCP6): ≥ 9.00
- pKd (HLA-B*51:01 [12]): 7.37

- pKd (HLA-C*12:03; source organism: Homo sapiens): 7.05
Sequence: YLQQNTHTL

Sequence: APRGFRAAF
- pKd (HLA-A*01:01; [14]): ≤ 4.70
- pKd (HLA-A*02:01 [3]; [14]): ≤ 4.70
- pKd (HLA-A*03:01; [14]): ≤ 4.70
- pKd (HLA-A*11:01; [14]): ≤ 4.70
- pKd (HLA-A*31:01; [14]): ≤ 4.70
- pKd (HLA-A*69:01; [14]): ≤ 4.70
- pKd (HLA-B*08:01; [15]): 7.00
- pKd (HLA-B*15:01 [10]; [14]): ≤ 4.70
- pKd (HLA-B*15:17): 5.26
- pKd (HLA-B*18:01): ≤ 4.70
- pKd (HLA-B*27:05; [14]): ≤ 4.70
- pKd (HLA-B*40:01; [14]): ≤ 4.70
- pKd (HLA-B*46:01): ≤ 4.70
- pKd (HLA-B*48:01): ≤ 4.70
- pKd (HLA-B*51:01 [4]; [14]): ≤ 4.70
- pKd (HLA-B*57:01 [5]): ≤ 4.70
- pKd (HLA-B*58:01 [6]; [14]): ≤ 4.70
- pKd (HLA-B*15:42; [16]): ≤ 5.30
- pKd (HLA-B*45:06; [16]): ≤ 5.30
- pKd (HLA-B*83:01; [16]): 7.42

Sequence: NASDRMGMGT
- pKd (HLA-B*57:01 [8]; [22]): 6.19
- pKd (HLA-B*58:01 [9]; [22]): 5.29
